In publication PMC8669144, “Imaging of Glioblastoma Tumor-Associated Myeloid Cells Using Nanobodies Targeting Signal Regulatory Protein Alpha” (Frontiers in Immunology, 2021):
Like-named read-outs stand apart in the source and are kept apart here. One block for each binder: values may come before it.

Tests used:
[1] = target: T1, recombinant ligand binding domain of mouse SIRPα (mSIRPα) (mouse); test: SPR
T1 chain: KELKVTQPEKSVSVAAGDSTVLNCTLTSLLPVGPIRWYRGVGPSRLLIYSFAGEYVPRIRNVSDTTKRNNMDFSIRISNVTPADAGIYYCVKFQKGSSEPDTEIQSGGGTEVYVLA

[2] = target: T1, recombinant ligand binding domain of …; test: SPR
[3] = target: T2, recombinant ligand binding domain of mouse SIRPα (mSIRPα) (Mus musculus, strain  …, UniProt P97797); test: SPR; Biacore T200; recombinant antigen immobilised by amine coupling on a CM5 chip; nanobodies injected in 2-fold dilutions from 500 to 1.95 nM; 25°C; HBS (20 mM HEPES pH 7.4, 150 mM NaCl, 0.005% Tween-20, 3.4 mM EDTA); 1:1 binding model; details: both partners purified
T2 construct: the results call the antigen the recombinant extracellular domain, the discussion the recombinant ectodomain; Gene ordered at GenScript; Captured on Ni-NTA, so a His tag was present at purification; also called recombinant antigen; recombinant SIRPα; source: E. coli WK6 (pHEN6), periplasmic extract, purified (IMAC on HisPur Ni-NTA, SEC Superdex S75)
T2 sequence (P97797 whole entry, looked up, the tested form may be a part): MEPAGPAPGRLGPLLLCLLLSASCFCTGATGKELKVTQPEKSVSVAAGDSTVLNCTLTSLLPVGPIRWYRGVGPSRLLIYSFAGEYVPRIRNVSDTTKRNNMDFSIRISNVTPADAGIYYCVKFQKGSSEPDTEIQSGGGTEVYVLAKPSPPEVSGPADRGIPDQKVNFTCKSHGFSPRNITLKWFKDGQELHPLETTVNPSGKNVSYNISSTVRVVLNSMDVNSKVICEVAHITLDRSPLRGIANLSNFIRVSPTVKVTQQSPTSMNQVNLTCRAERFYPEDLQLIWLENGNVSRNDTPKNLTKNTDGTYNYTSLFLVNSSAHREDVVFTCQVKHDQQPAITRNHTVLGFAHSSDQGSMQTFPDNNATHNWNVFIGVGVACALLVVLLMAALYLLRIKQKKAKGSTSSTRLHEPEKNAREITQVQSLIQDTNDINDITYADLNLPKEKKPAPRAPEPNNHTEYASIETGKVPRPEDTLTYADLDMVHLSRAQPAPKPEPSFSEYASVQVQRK

[4] = target: T3, mouse SIRPα natively expressed on RAW 264.7 macrophages (Mus musculus, endogenous in RAW 264.7 …, UniProt P97797); test: flow cytometry on cells; 1 µg purified nanobody with 2 x 10^5 RAW 264.7 cells, 4°C, 1 h; detected with AF488 anti-HA antibody; threshold triple ΔMFI of the non-targeting BabA Nb19; details: one partner purified
T3 construct: also called native murine SIRPα; cell-membrane mSIRPα; source: endogenous, on RAW 264.7 cells

[5] = target: T1, recombinant ligand binding domain of …; test: SPR
[6] = target: T1, recombinant ligand binding domain of …; test: SPR
[7] = target: T3, mouse SIRPα natively expressed on RAW …; test: radioligand binding; 99mTc-labeled nanobodies at 2, 20 and 200 nM on adherent RAW 264.7 cells, 1 h, 4°C; aspecific binding with 100x molar excess of unlabeled Nb; details: one partner purified
[8] = target: T2, recombinant ligand binding domain of …

koff [1]: 0.221 s⁻¹
Kd [2]: 354 nM
binding result [3]: binds
B1: anti-mSIRPα nanobody Nb54 as used in SPR and epitope binning (VHH)
VHH: QVQLQESGGGSVQAGGSLRLSCSASGHMYGSVIGWFRQAPGKERVGVAAIYTYAGSEYYADSVKGRFTVSQDTQDNAKNTVYLQMSSLNVEDTAMYYCAVGFPLGRLTTVRTLASNEYKYWGQGTQVTVSS
notes: source: E. coli WK6, periplasmic extraction, purified (IMAC, SEC)

binding result [4]: binds
B2: anti-mSIRPα nanobody Nb54, HA- and His6-tagged (pMECS) (VHH)
VHH: QVQLQESGGGSVQAGGSLRLSCSASGHMYGSVIGWFRQAPGKERVGVAAIYTYAGSEYYADSVKGRFTVSQDTQDNAKNTVYLQMSSLNVEDTAMYYCAVGFPLGRLTTVRTLASNEYKYWGQGTQVTVSS
notes: also called clone 54; source: E. coli WK6, periplasmic extraction, purified (IMAC, SEC)

koff [5]: 0.00733 s⁻¹
Kd [6]: 57.4 nM
B3: bivalent anti-SIRPα Nb15 (pHEN25 construct, dimerised through a cysteine) (VHH)
VHH: EVQLQESGGGSVQAGGSLRLSCATSGLTYSAYCMGWFRQAPGKGRETVAQINLGDGDTYYADSVKGRFAISQDNAKNTVHLLMNGLKPEDTAIYYCAGSDHMCAKWHYWGQGTQVTVSS
modifications: 99mTc tricarbonyl at the His6-tag (in the radioligand binding assay only)

binding result [7]: binds
binding result [3]: binds
B4: bivalent anti-SIRPα Nb15 (pHEN25 construct, dimerised through a cysteine) (VHH)
VHH: EVQLQESGGGSVQAGGSLRLSCATSGLTYSAYCMGWFRQAPGKGRETVAQINLGDGDTYYADSVKGRFAISQDNAKNTVHLLMNGLKPEDTAIYYCAGSDHMCAKWHYWGQGTQVTVSS
notes: as the VHH of m7 (Nb15); fourteen amino acid long linker and a cysteine after the His6 tag (pHEN25); The cysteine allows dimerization; The order of His6 tag, linker and cysteine is worded loosely; also called bivalent Nb15; bivalent construct of Nb15; source: E. coli WK6 (pHEN25), periplasmic extraction, purified (IMAC, SEC); not shown: His6, C-terminal, kept

binding result [8]: binds
B5: Nb 35 (VHH)
VHH: QVQLQESGGGSVQAGGSLRLSCAASGYSYSSTCMAWFRQVPGKEREGVASINNSGTATYYADSVKGRFTISRDNAKNTLYLLMDNLKPEDTAIYYCAASLRRGQDCLGAIDYWGQGTQVTVSS

binding result [8]: binds
B6: Nb 33 (VHH)
VHH: QVQLQESGGGLVQPGGSLRLSCAASGFTFSSYFMSWVRQAPGKGLEWVSGINSDGSMTYYLDSVKGRFTMSRDNAKNTLYLEMNSLKSEDTALYYCALRGVFSDYALHSQGTQVTVSS

binding result [8]: binds
B7: Nb 75 (VHH)
VHH: QVQLQESGGGLVQPGDSLRLSCAASEFAFSSYFMSWVRQAPGKGLEWVSGINTDGSMTYYSDSVKGRFTISRDNAKNTLYLQMNSLKSEDTALYYCVLRGVFSDYALQSQGTQVTVSS

koff [1]: 0.0087 s⁻¹
Kd [2]: 6.9 nM
binding result [3]: binds
B8: anti-mSIRPα nanobody Nb89 as used in SPR and epitope binning (VHH)
VHH: QVQLQESGGGLVQPGGSLRLSCAASGFAFSRNSMRWVRQAPGKGLEWVSSISSDGKYTYYTDSVKGRFAISRDNANNTLYLQMNSLKSEDTALYYCSTGGAPASQGTQVTVSS
notes: as for B1

binding result [4]: binds
B9: anti-mSIRPα nanobody Nb89, HA- and His6-tagged (pMECS) (VHH)
VHH: QVQLQESGGGLVQPGGSLRLSCAASGFAFSRNSMRWVRQAPGKGLEWVSSISSDGKYTYYTDSVKGRFAISRDNANNTLYLQMNSLKSEDTALYYCSTGGAPASQGTQVTVSS
notes: also called clone 89; source: E. coli WK6, periplasmic extraction, purified (IMAC, SEC)

binding result [8]: binds
B10: Nb 26 (VHH)
VHH: QVQLQESGGGSVQAGGSLRLSCATSGLTYTAYCMGWFRQAPGKGRETVAQINLGDGDTYYADSVKGRFAISQDNAKNTVYLLMNSLQPEDTAIYYCATTDGRCQKWQYWGQGTQVTVSS

binding result [7]: binds
binding result [3]: binds
B11: monovalent anti-mSIRPα nanobody Nb15, His6-tagged (VHH)
VHH: QVQLQESGGGSVQAGGSLRLSCATSGLTYSAYCMGWFRQAPGKGRETVAQINLGDGDTYYADSVKGRFAISQDNAKNTVHLLMNGLKPEDTAIYYCAGSDHMCAKWHYWGQGTQVTVSS
notes: both carry a C-terminal His6; also called monovalent Nb15; anti-SIRPα Nb15; source: E. coli WK6, periplasmic extraction, purified (IMAC, SEC); not shown: His6, C-terminal, kept

binding result [4]: binds
B12: anti-mSIRPα nanobody Nb15, HA- and His6-tagged (pMECS) (VHH)
VHH: QVQLQESGGGSVQAGGSLRLSCATSGLTYSAYCMGWFRQAPGKGRETVAQINLGDGDTYYADSVKGRFAISQDNAKNTVHLLMNGLKPEDTAIYYCAGSDHMCAKWHYWGQGTQVTVSS
notes: An alpaca and two dromedaries were immunised; also called clone 15; source: E. coli WK6, periplasmic extraction, purified (IMAC, SEC)

koff [1]: 0.00809 s⁻¹
Kd [6]: 109 nM
Kd [2]: 49.4 nM
B13: monovalent anti-mSIRPα nanobody Nb15, His6-tagged (VHH)
VHH: QVQLQESGGGSVQAGGSLRLSCATSGLTYSAYCMGWFRQAPGKGRETVAQINLGDGDTYYADSVKGRFAISQDNAKNTVHLLMNGLKPEDTAIYYCAGSDHMCAKWHYWGQGTQVTVSS
modifications: 99mTc tricarbonyl at the His6-tag (in the radioligand binding assay only)

binding result [8]: binds
B14: Nb 52 (VHH)
VHH: QVQLQESGGGSVQAGGSLRLSCAASGFTYSNYCMAWLRQAPGKERESVAQININDGDTYYAASVKGRFTISQDNAKNTVYLMMNSLKPEDTAIYYCAATGYGCQGYNAWGQGTQVTVSS

binding result [8]: binds
B15: Nb 1 (VHH)
VHH: QVQLQESGGGSVQAGGSLRLSCSASGHMYGSVIGWFRQAPGKEREGVAAIYTYDGSEYYADSVKGRFTVSQDTQDNAKNTVYLQMSSLNVEDTAMYYCAVGFPLGRLTTVRVLASNEYKYGTQVTVSS

binding result [8]: binds
B16: Nb 42 (VHH)
VHH: QVQLQESGGGSVQAGGSLRLSCAASGFTYSNYCMAWFRQAPGKERESVAQINNNDGDTYYAASVKGRFTISQDNAKNPVYLQMDSLKPEDTAMYYCAASDSRCLEYKYWGQGTQVTVSS

binding result [8]: binds
B17: Nb 12 (VHH)
VHH: QVQLQESGGGSVQAGGSVKLSCATSGLTYSAYCMGWFRQAPGKGRETVAQINLGDGDTYYADSVKGRFTISLDNARNTVYLQMNSLKPEDTAIYYCAATYSSRCASFGYWGQGTQVTVSS

binding result [8]: binds
B18: Nb 92 (VHH)
VHH: QVQLQESGGGSVQAGGSLRLSCAASGYISSTSYVGWFRQAPGKEREKVAEARSGGDYTWYADSVKGRFTISQDNAKNTVYLQMNSLKPEDTAIYYCAAGEFGGPYNNWGQGTQVTVSS

binding result [8]: binds
B19: Nb 47 (VHH)
VHH: QVQLQESGGGSVQAGGSLRLSCAASGFTYSLYCMGWFRQAPGKEREKVAEMDKSSGDTDYADSVKGRFTISQDNAKNTVYLMMNSLKPEDTAIYYCAATGYRCQGYNAWGQGTQVTVSS

binding result [8]: binds
B20: Nb 25 (VHH)
VHH: QVQLQESGGGSVQAGGSLRLSCAASGHSFTLDCMGWFRQAPGKERESVAEINMYSGNTYYADSVKGRFTISRDSAKSTVNLQMNSLKPEDTAIYFCAAAPTCARWDYRGQGTQVTVSS

binding result [8]: binds
B21: Nb 3 (VHH)
VHH: QVQLQESGGGSVQAGGSLRLSCAAFGFTYSNYCVTWFRQAPGKERERVASIDRSNGDTLYTESVKGRFTISQDNAKNTVSLVMNSLKPEDTAIYYCAATDRYCADWRTWGQGTQVTVSS

binding result [8]: binds
B22: Nb 53 (VHH)
VHH: QVQLQESGGGSVQAGGSLRLSCAASGYTYSDYCMGWFRQAPGKEREVVAEINIVDGDTYYADSVKGRFTISQDNAKNTVYLRMNSLKPDDTAIYVCAATGRRCQGYNSWGQGTQVTVSS
